This assay concerns the target GFP-β1-integrin (UniProt P05556). Briefly: co-IP; GFP-Trap capture of GFP-β1-integrin (or GFP alone) from MEFs spread on 50K-coated dishes, unstimulated or stimulated with H/0 for 10 min, cross-linked with DTBP; western blotting. In general terms: Immunoblotting shows a protein as a band on a membrane.
UniProt P05556, sequence (P05556 21-798): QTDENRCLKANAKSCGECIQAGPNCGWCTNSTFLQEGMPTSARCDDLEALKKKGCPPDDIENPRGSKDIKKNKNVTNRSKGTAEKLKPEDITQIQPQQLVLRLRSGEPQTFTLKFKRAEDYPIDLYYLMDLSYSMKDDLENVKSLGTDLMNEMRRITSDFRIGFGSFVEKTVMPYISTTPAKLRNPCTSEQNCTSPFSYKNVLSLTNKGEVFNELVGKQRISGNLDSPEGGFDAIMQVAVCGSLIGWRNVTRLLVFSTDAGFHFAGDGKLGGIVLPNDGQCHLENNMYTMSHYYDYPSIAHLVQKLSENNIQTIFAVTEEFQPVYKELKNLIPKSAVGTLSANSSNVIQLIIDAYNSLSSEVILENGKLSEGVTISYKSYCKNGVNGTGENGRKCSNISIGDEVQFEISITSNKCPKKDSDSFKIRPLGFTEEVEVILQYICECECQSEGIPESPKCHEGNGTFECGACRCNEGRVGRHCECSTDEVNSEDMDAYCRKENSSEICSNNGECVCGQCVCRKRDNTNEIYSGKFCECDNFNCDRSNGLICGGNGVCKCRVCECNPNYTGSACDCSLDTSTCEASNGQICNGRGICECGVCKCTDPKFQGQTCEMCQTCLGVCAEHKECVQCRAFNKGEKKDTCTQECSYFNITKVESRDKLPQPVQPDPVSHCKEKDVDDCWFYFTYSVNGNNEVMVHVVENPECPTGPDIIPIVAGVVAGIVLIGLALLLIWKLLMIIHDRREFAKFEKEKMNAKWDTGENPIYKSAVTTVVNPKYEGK

RhoGDI, sequence (Q99PT1 whole entry): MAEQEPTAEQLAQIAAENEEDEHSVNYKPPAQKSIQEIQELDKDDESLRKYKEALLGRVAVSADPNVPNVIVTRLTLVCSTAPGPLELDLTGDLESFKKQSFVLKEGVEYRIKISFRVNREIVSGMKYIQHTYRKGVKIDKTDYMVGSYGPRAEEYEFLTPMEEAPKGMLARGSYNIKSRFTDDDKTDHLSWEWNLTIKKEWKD

For the substance “RhoGDI (from UniProt Q99PT1 1-204) (natural protein)”, the reduction in bound RhoGDI after 10 min H/0 stimulation, against unstimulated cells was 46%.

The record behind these values is PMC3202633.
